Two molecules from publication PMC5562331, “The transcriptional regulator SsrB is involved in a molecular switch controlling virulence lifestyles of Salmonella” can be followed below.

The target of the data set is 6H-SsrBc (Salmonella enterica serovar Typhimurium, UniProt Q7CQM5 138-212). The data set is described as follows: EMSA; 0-2 uM protein. The conditions noted are these: protein: recombinant; 5' overhang 4 nt at both ends. For orientation: A gel shift assay detects complexes by their altered migration in electrophoresis.
6H-SsrBc, sequence (Q7CQM5 138-212): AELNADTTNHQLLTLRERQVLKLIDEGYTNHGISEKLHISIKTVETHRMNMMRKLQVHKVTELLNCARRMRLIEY

B1: hilD -37+6 (dsDNA)
DNA 1: GATCCGCATTTACAACTCAGATTTTTTCAGTAGGATACCAGTAAGGA
DNA 2: AGCTTCCTTACTGGTATCCTACTGAAAAAATCTGAGTTGTAAATGCG
Regarding B1, the binding result is “binds”.

B2: hilA -35+6 (dsDNA)
DNA 1: GATCCGCATTTACACCCCAAAAAAATGCAGTAAGATAGCTACAAA
DNA 2: AGCTTTTGTAGCTATCTTACTGCATTTTTTTGGGGTGTAAATGCG
B2: the binding result is listed as “no binding”.
